In the DeepSol protein solubility set:

Assay: soluble on expression in E. coli; label from the status in PepcDB or PDB records

Sequence	soluble on expression in E. coli
MAHHHHHHMLRFTVPALVVFQNAYAPRVLNRMTPDRMELTMLILKERKKKVRYLGSNFQGFNDRVHLFNAQGGVRRGTRYIIETHHNRIQFKHRSRNNSMVDVRAVKMAGSQYDSIGNYTRMTWDNSLCTTNLLSDPNFKRHFKNMPKEETIGVLEEWGVRYILLDEIRKPSLMDCKYHKHHLYADKFWWSPSPETNHMRGDAEFKWKGNELIAYGDYNAHMQHPANFVTSSSSGSSGSGAATSKSAAAAAGSKKGASARPWFRRTVVVRKSQASDTKPLSTASKIAAAGTSK	soluble
MAHHHHHHMLRHCTAHRRYRTAWRELLHPLPVRARKMEWLKRDAVEENEEILRRPYYTIKSYALPPAVGRQESIHNSNNIRGGMHSSHSLDLIMRQPRRVKTPEQLQALRDRLRFIGVTGPMPQATSVSTKSYADTYGSRLRPRYPESWDTVPPHQPSRELL	soluble
MAHHHHHHMLRITPSRYASKVTAGNAKNQAGSPRQKAKLFHVIPGTPVTPVEKLKEQRRRFGQDRYSRQPEYRPGRNVRMDPNTFTLYATTKGVMTIRTSRINPSYKWLDVEPDIQKVYRSRCMRAALQARGKASMMVAGNVHYRAELDHVTEPHWRERVMRVPKATERFQDPNYFTRGLVPSLRPLSRYSYE	soluble
MAHHHHHHMLRRVSLSALVQRVAAGAVIATAGRTIVVFSQQHHILESNQRARNSPSNVWIEDWEADRLGMKPEPGALPTQLVLDKQLELFNFDQLLSPPEVMEAPKHSSYSSRKVYGERLQFELNDRAQRHSYQSKWWITRGQAYKENLQFKANARSSILLTKSQIKLFHSSQLSGGEALQQYPVSGGSRRVYSKKGEAFQLLQDHIKSNDFNSGLYFTRRQMEFFKLAPLPDQVPVVQEAATGDRHLIYNVDQLEDPHLALKTLQRAPVNVPTFLLSGEPIMSENTRKFPKTFRSNYWLTGRDAELYQWPIKESERRRGVPFSTGTSAPVQYELFNVEQLSNPDEAFARAGLLIQ	soluble
MAHHHHHHMLSIGMTAMDTEGDVTQMELSALLVHIERCERLLRHPTLLSRLPDEGETIRSRHALYVAERSRREVGGDASSSRKENDAVEGSVRQVERQISQMTLSTEEKSEKTATMPMECHASLNTDGWTVGAGGKAVESYEDVARAVGEKHRHSRIPVEMIVRQTFGGSLCEAEIQRMLCDVPPNFFLTHDETISMQRKLLSEERLEALTRLRNQRHAEL	not soluble
MAHHHHHHMLSPTPLLQRYRLFHPCRENIPLHMNPAKSMFPLINSNNLLAKPRSNWQDFSGRKEFDEDHPLPVVASRLNERTTQHKWSHWDQYLNPQITQSVRDLTPTPEYVGMRSGHNMIKMGWMKIGGSWKYSRGYNDRRRVFARGQWQERKMTPRFMLAPRVSPGGPRNRYEGKLVFSRLKLSKLLWAIDTGRLNPNEVITVYHLHEAGVVAEGEIVWPGFVLISSGVSRVPYPIHIELQNASAESIRLIEEAGGSFTGVYMTHDGLYQELHPEEYPVFPEQEFPERKGLEGLATNPAKRGWLVRWYEDEGKYAHPEAGRRYSHYVRPPTERDFPATVGEYEMVKHHQKWHLNQPGTGTLLPWHSYNTADLLKRSAGRV	not soluble
MAHHHHHHMLTSTAYGMELQARAIAPFYHSSNNSSSTHRFVAGTACFAGGNVIRLLTFQEESQLLECTATWSHEEEIFGLWSSPSVAGPSLLAVGASSYCRIFRVSDDVSGELEPVVNFNAAAAQVLWDLEGLQNEVKLISEDSLRIYSLTEGKMGEEIGRFRVDGCAELRCAALDPHHSSVCLAAGEGIGIAVIDTRRKGPIVMPNTTTLHGLGMIQSIDFSNAREGLFMTAGTDGVIMWHDFRMDGEKSVVERRGYLDAHDHCVQRSLFNPFHDELLISCGSDHTLKLWDTSKKGADGECAVCVSKLSDFAESVVACCWSNSNPWVFAGLSYNGRVLVDSVPEECKMQFIGKEG	not soluble
MAHHHHHHMMDDQSSTSGGPQEGRDADHRQNHGNVLFVGNLPFQTPWQHVKDHFRKAGKVRYTDLIADRMGRPKGSALVTMVTAEGAQRAIRMYNETDFEGRRLIVRLFDDGPRPPIVQRGMMPQYDRQTQQQQPQQQSQRFRGYTGASSGGSNYNNTTNFGRRADYMGRGGYTMEEDLNATSLNDMGDSVPKPRSQQVNEFGRKLFVSNLPFDCTSSALRETFQQVGNVERAEVILGRNGKSRGMGIVVMRTEKETRLAIEEFDGIEMANRAMSVRLDNKTTA	soluble
MAHHHHHHMNEKNKDINKYTSTNNMYKLSENNHKSLLENLKRRGIIDDDDVYNTMLQVDRGKYIKEIPYIDTPVYISHGVTISAPHMHALSLKRLINVLKPGSRAIDVGSGSGYLTVCMAIKMNVLENKNSYVIGLERVKDLVNFSLENIKRDKPELLKIDNFKIIHKNIYQVNEEEKKELGLFDAIHVGASASELPEILVDLLAENGKLIIPIEEDYTQVLYEITKKNGKIIKDRLFDVCFVSLKKN	not soluble
MAHHHHHHMNNSSAVATGDNPQLQKPMIYKNRARSIVHRSVRNGSENQLTEQANGTSIRDKIRRLFSSKHDQTIRDMQKTKLTKNKSIQEQEPSERNVDGFLSTDHQSVEWQPVYRETCKIKLPVEEGATKIAMPEEVLDDWVHSQHKISQQLGRRKGGEFVQDNQSLGDHDQGDDLLELGGDCLLGKNASRKSCNLKSTEDQYSKFKYYYNYYLVDEYLESLAASPNKELDATGLDEHGQLYDNVSLNARPIIVSKQRLESGVPYDPSKLLQ	not soluble
MAHHHHHHMNQDLDKELREALQQDKYDLQLFLRFLKSYVVSGSQPEKQLLLGILLQALPRFHTSDFSACISLISSHVQDASYIEKDIILIYDLENYLSSGNFPQFWQVWRESEGTLPARPSFEPNMRAAILTVIGCTLGHIQTKDLSVYLGLKSGEKLEEVLREAARIAGDAVQLVGADEQAVVFQKSVFNAPESDSNQELKRFSDTVTIVSL	soluble
MAHHHHHHMNQVIRSRTDWKERVVLRLAWITASRWSEIAALTPNNLKLKTDGTLILYWPVAPKTARTDPHRASRFVRIRGQDAFDIIKLCRTLQHIEKLTNLTTARVERALAPWNATAHSIRRGALRHAAQIVEAYNLNPHVISQLAKHVDPFDLPQNTVRYLGNCTTMLTQVLSLVALM	not soluble
MAHHHHHHMNRKRPRSPAGVQYWLMKSEPNKFSIDDLKKCTRSPWDGVRNYAARNNMKLMKVGDCVLFYHSNAKPSGVVGLASVVKTAYPDHTALDPKSEYYDARASKKNPWEMVDVQFEEKFASIVSLEELKKEKKLQAMQLFSQSRLSVQPVEKSEYDHVVSLGRKK	soluble
MAHHHHHHMNTFNYIRSPTGVHEVDGPPNDCVSTVRFSPSGCPYLLLGAASWDKTCRVWQVIHQPNAINIRSQPMTFAVSDAPILDMSFSADGRVFWGGCSKTATMWNLTTNQKIIVGSHDLPVSCIAHVSSNTGTEMLVTGSWDGRLRFWDLRQPMPIKEEILGEPVFGLDAQRSFPMAACVTGRKVHIFNLQTMMKTNELKPPPLLKFNLGCVACSPQKDGVVVGSSEGRLSFIPLQAEVGCTFKAHVLVEDNVLYMHQTNFCVISPRVPHMISGGGDGRIGCWDYKKRSIVGYGESETRLENRNKSISAGDISADGSLLAFARSYDWAMGKTGCIPNEPHSIHIRSAEWKSALS	not soluble
MAHHHHHHMNYNNNSFIPPTHVVKNIYTSAKTKFFLIKSSSDKNIAISLNYNIWATTPKNEYKFVSAFMEHDYVILVFSVNGSSKFCGYAIMQSKPGESKNNNVYFYYDNKVFRGKNFDIQWIRVVDVPFQEVAHLKNSLNEYKPIKVGRDGQEIEQMAGIQLCEAFESNFIKINNNITDTNTKPNIPPMYNMNTNNYVDSPNMNENIDMIKLYPYNNNFNINYNNFRNLYEESQYNLFNFYNPALHIFPIDLTNMNYDEYIYLYEKSQLVWQQKMLQMKANMNCIKQ	not soluble
MAHHHHHHMPAKSAKSKTQTLRDERKLGVEKLVELVFIGRPRTLSFSHRSLGSLRHPYSSLICETSAACASTQDKIMYLLEVFLEAKAEKKAWMRVERIFDSMLGDALMEKMKLGLLLSSELLQRFEVLWIRLGGVNGGFIFEDAYKQFHQHLYFTLFGIEQMTLLPATMQFILEDYQYDSHDKSGIDFGSFAHSMLELADNWAGSREVTDYVAFMDKIIECYPASAVKPCKTHAPDELTLSKDAFFRGGVVVPRVEGEQIVYHRITL	not soluble
MAHHHHHHMPARWHNKQKKGSNGHKRPSTGGNGSAARRDIGFIPPGASAVQNSSAHHADTFMYRFPQNFPVPRRLRHAPTSLVEAVNDFHFAMMNDRPRNEFYYELLKRHVTPETGVLEIGAGSGLLSLMAAQLGAKWVVAVEGSAEMAKLARANICANKMEHKVTVLHMLSTELTLRHLPDRPDVMVSEILGTLLLGESALDYIADVRERLLKPTTKIIPQHGTQYAVPIECDTLRDVCAVSGWKGLELSHMTALQDTVSIVFAKQYGFRMSSVPFRRLSEPIALFSVDFASAVRRDIPMNLKLDVKATSSGTAHAMLYYWKAFDGDLVMSTDPADTLNNFPRDMQWGQALQLLDAANGPFPTPVVFTEGEELKFQCHFSSDRVTVHIHLCPTAEAAASPAKTTPTDNDAIKTEKEACEKVNKGKK	soluble
MAHHHHHHMPGASDRGTAYVSCRIHCLPACFSRAVVAVCKLTSPAPGIPPLVSLCRYGLPGYSAQEGEAFSAAASGLHPRHQLPFVLSRVAASKAIASLSPDKRAACPGEEDGPAVVFTDRREAAPTLHGCCLSIAHEDSAAASVAWSVPSPDSSSFKDYHAAPERLYMEAQLVCSHSTLPDATATSFAYAIDVVNVAEVHRVRSRFPHFGQRWMPQCTTTASADDVGRALTCVQKQHQECVAAVGAPGGSHGGEGVSACQAACRRDEWWKHLVTPYVTEADAYAAVVLAQHWGVRECAVKLVGIPGRSFAYECVRALPPRGGAVVTESTPFTASFLMSHTLYSAEVHGAEAATLAQQRLHPLLYLYTWTEWVPLNSTVDLPYVVVLACAPCRSDAR	not soluble
MAHHHHHHMPHHAQDLRHDFTSGILNCHESCAVCLDACLCMYCTASAHHNFLMNDTEGLYLPVCWGLFCVDVGLSAVSSYLPSSLHFHTYFMRSAIRRRYNLHSA	soluble
MAHHHHHHMPIPSPPPPMRFVPNGVGGGGARDLTAVKEPNFEVLETSSPVPARVIHNAPASAVPSGTQRPVEAPPSTHATGAQHHPKAVHSPPLACPALAMTSTPASSSSSSSSQQVAQLWQLVQDLTAENAVLQQRVRVLMEGETHDAILPGMLTAPSSPEETEALLLRVRRLEAALKVEAMEREALEVRLQAQEQVLTRLLRR	soluble
MAHHHHHHMPKEVQEKDEFFYFFNHFCFYIINETKQYALSYKMNFAFYLPYGSLGVDVLKNVFDYLHYLDVPTILDIKMNDIGNTVKHYSKFIFHYLRSDSCTANIYMGTHMLRDICLDEECKRHYSTFVLIKTTNPDSHIFQNRLSLDGKEAYVVIADEAQKMAKQLHLEENGEFVGFVVGANCYDEMKKIRELFPDCYILAPGVGAQKGDLRKTLCNGYSKNYERLLINVGRAITKSGNPQQAAREYYHQIKEILAEL	not soluble
MAHHHHHHMPPFFEARAEKLMLAAQEECRLLAAQLEKSRAARAASTCGPQGKIRAAPATAPVAATSPPSPRRTYSAATATVAVKGLSIGSSTSTSPDRAGSPSAAPPSASPARVVIPTAATHKEGTLLHLVRGSGLFGSGSRSFVPHYIAVSGSAGISWYASEAEYRQNPSRPLGHADFWIETFNSRGSRFKKAAVCWPLILPDDCPEAKDANKTYFAVDYYTPDEAREQVVLAASSPAERDEWVQLLTKYIDLYLAPRAESEELQHIPRGAEVPLHRSGVIEGEAPGGNIL	soluble
MAHHHHHHMPQRSHVPLASPSPLNAPPPLTSRPGPVNYCGAHAEPAAGLNYTHHDDHRSVFRDQASCDPSPSQRALHQQQVHRPRAVSPGPHDGSAPHVSALVARGAVIRADELETILDEQNYIWQMEEYRFRTERQKRLTALQHRQHELMLESARYDQAVAEVERQLARERQRLEELRQMMARNATTSCSPIDREHGLQDPPTAMSDAPHVIARNSSAMHHGQARDHAYSAPHDAPYFPTGASDGLSAMNEEEVIAEV	not soluble
